Consider 27 sequences from the domain aggregation screens of Martell et al. (2025).

Some results are limits rather than exact numbers.

This data set can be described thus: soluble fraction after stress (log2 fold change); higher = more stays soluble; pooled small domains, quantitative proteomics. The note with it: stress: pH 4. In short, it runs like this: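 Small protein domains from pooled custom libraries were exposed to pH 4, then quantified with high-throughput quantitative proteomics. The fold change in how much of each domain remains soluble is read as aggregation propensity. It is given as log2, with higher values meaning more stayed soluble.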
For “HMTDEEKENLREKMLEAGFPLLKQYGMTHTSVAKITQAAGIAVGTFYSFWKNKEAYMADLIGYHRR”, the “soluble fraction (log2)” value amounted to 0.105.
Consider “HMTDITSAITRLNKYNKSGTPLTIDSVTPEALQTLQAKVSSAFEIGAVNQQTYDDVTKDIATLQQYLSSA”, for which the “soluble fraction (log2)” value was -0.102.
Consider “HMTDIVPNLIGKSLKDAIQSVEKSNLKAIFDGHGIVVSQQPRPGSPIPARKIMKVTLSPDYR”, for which the “soluble fraction (log2)” value is 0.135.
As for “HMTDKLEEEAKKKAMEDALADEMNISKTIVHDGIRELARIGFLDVISRKGIYVADYTFTGNLETLLAVIRY”, the figure is -0.0919; as for “HMTDLDDFAARLKTLTDGRASTPRLRDGVMMLSLDVGGLGPDQRDGLIAAIREGGLTVPGVSDVRIVMT”, 0.22; as for “HMTDLEDDEKKVYRLIVESGEGIDFDTLSERSGFSATELPSILLFLMMKEMIDELPGKIYRYSE”, -0.327.
As for “HMTDMYLTYQELRHLGVSQNLISMWKSRKSIDFHMLGGTLYVRYMSIPEQTRSKLALQNVERVYNSRE”, the figure is 0.0329; as for “HMTDRINIGDVVTIISKDREDSQIVYMRYHKGKLSILGELILNKTKNDTVDFKGRTYDIATIEKS”, -0.228.
As for “HMTDVHFIDVPVSEGHPWIGLTVKDLNLPPGTLLVFLNHPGEKSTVPNGDTVLREGDVLVLGATAYAG”, the figure is -1.02.
Turning to “HMTDYKTNLQEFLQQDGEVEIEYKLLAEVGPSHARQFEVDVMMGDRVLGSGVGRNKKAAEQAAAKVALSKL”, the “soluble fraction (log2)” value was -0.375.
As for “HMTDYVPTIGTKISKDFGSKGYFEGEVVSGPHNVTVEGDNMVVWKVQYEDGDREEMTASEIAHWKA”, the figure is 0.22; as for “HMTEAIDVPNLVGQNYSDVKSNSSYKFNWDIINVYDSGKPEGEIIKQEPEAGSKKVKENAVITLTVN”, -0.0209.
Take “HMTEDNDLETIAYDILKERNLNNININVKNGVLNIYGKTETLKEKREIEKILSSLNVSKINNLIKI”: the “soluble fraction (log2)” value was at least 0.43.
As for “HMTEDQDWAIFKQKLKAQTEIDLDLYKEPQMKHRIKNLIQNAGFDSYVQYFDYVYLNQDRLAAFLENLTV”, the figure is -1.15; as for “HMTEEELLERLDAVITEYKGKPGALIPVLQLAQGIFGYLPEVALKHIARQLDKPYSEVAGVVSFYSFFTT”, -0.048.
As for “HMTEFDVIMKSFGSEKIKVIKEVRAITGLGLAEAKALVEGVPAKIKEQVSKDDAEALKKQLEAVGAEVEL”, the figure is -0.76; as for “HMTEFWTGPITTVTKANFADWTLDTNQDRITANVWLTRADSKGLFNITPGKETAFDIVDYLSPLDTEWA”, -1.82; as for “HMTEGDRLARRILRLVRNKPNGYPEVELMKATVLDWNHFQRSISSLEMAGILERRDPGDGTPPVWVEKR”, -1.11.
In the case of “HMTEKIEWYKEVLDLEPNSKIFFPLAKMLEKEGELEEARRVLAEGVSRHEEFLEARLFYISVLSRL”, the “soluble fraction (log2)” value is -1.05.
As for “HMTENLELLATGSLWTEPDGSGKIISYLIPGLRVKKLETNGIFYKIQLQNGLIGWADQSLFTIAEPK”, the figure is -0.212.
As for “HMTENQKNIDLIKIVSLLVHAAKIDENYTNKEKELIINFINNFSKENKQNIKSSEILEEAEKYEK”, the figure is -0.0377.
As for “HMTEPKRIVDHWQPSDDVYDILRMSHIDLDFARSLLPEFIVYWKDSSQTHTSWNSKFLQHAKYHWAKRHQL”, the figure is -1.21.
In the case of “HMTEPLTKREKEVLLLLPRGLTAKAMASELFLTEATIKSHLAAIFRKFKVVNRTQAIAIAVESKILT”, the “soluble fraction (log2)” value was -1.1.
As for “HMTESLVITVDPALHGLRLDRGLADALPDRSRSEVQRWIKEGRVQLHGAPAKPSLKLAAGDIVTIALPEE”, the figure is 0.236; as for “HMTESSTYFEKIGTEISQFKSIPKNIDVIIIEKLIYSGIIKKVDNEENSRVYYILTRKGRYFWKRYVLS”, -0.0659.
As for “HMTETFVLNLRQPIAAAPVLPGYRVARTDEQTLEVEVSKDQNLNEIFTALSALGVEVLSMRNK”, the figure is -0.303; as for “HMTFAEADAQYEVIKQQYLAGALDEEQFDEQLHRLMVLDDGGLWWAKSRENGSWHYYDPDREDWIAATP”, -0.995.
